This assay deals with T1, recombinant His-tagged NRF2, full length (UniProt Q16236 1-605).
T1 sequence: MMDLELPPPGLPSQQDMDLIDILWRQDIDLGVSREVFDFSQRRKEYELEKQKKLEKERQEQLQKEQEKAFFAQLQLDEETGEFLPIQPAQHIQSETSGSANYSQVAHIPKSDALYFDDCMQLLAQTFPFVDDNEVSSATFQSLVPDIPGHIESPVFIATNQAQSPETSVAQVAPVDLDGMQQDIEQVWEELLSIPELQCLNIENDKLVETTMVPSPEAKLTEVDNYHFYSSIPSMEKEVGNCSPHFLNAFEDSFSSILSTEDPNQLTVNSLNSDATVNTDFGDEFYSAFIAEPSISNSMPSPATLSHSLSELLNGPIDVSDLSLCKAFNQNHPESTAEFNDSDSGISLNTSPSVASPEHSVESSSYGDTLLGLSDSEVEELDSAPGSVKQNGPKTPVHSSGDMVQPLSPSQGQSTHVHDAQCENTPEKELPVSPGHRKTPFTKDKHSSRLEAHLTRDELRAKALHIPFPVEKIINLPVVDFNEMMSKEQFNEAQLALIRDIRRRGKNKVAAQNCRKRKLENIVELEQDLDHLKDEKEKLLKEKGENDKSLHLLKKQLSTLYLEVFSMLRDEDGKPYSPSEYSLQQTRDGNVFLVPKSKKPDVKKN
In words: MST.

These results are taken from publication PMC12273567 (The Journal of Biological Chemistry, 2025).

B1: recombinant αB-crystallin (natural protein)
chain: MDIAIHHPWIRRPFFPFHSPSRLFDQFFGEHLLESDLFPTSTSLSPFYLRPPSFLRAPSWFDTGLSEMRLEKDRFSVNLDVKHFSPEELKVKVLGDVIEVHGKHEERQDEHGFISREFHRKYRIPADVDPLTITSSLSSDGVLTVNGPRKQVSGPERTIPITREEKPAVTAAPKK
A word on the Kd: it is the free concentration of one partner at which half of the binding sites on the other are occupied at equilibrium, for simple one-to-one binding. Turning to B1, the Kd was 859 ± 70.1 nM.
